For assay [1], the target named is cGAS-pMag (pMag fused to the C-terminus of full-length cGAS) (UniProt Q8N884). As to the kind of experiment: dcFCCS.
Assay [2] deals with Cyclic GMP-AMP synthase (cGAS), full-length (amino acids 1-522) (UniProt Q8N884 1-522). As to the kind of experiment: dcFCCS.

These results are taken from paper PMC11965557 (Communications Biology, 2025).

In assay [1], “nMagHigh1-ORF9 (nMagHigh1 fused to the N-terminus of VZV-ORF9)” showed a fold increase of the proportion forming heterodimer under blue light of 5 fold. The same measure, in the same setting: next, “nMagHigh1-ORF52 (nMagHigh1 fused to the N-terminus of KSHV-ORF52)”: 5 fold. “nMagHigh1-VP22 (nMagHigh1 fused to the N-terminus of HSV1-VP22)” displayed a fold increase of the proportion forming heterodimer under blue light in assay [1] of 5 fold.

B1: Herpes simplex virus type 1 VP22 (HSV1-VP22) (natural protein)
chain: MTSRRSVKSGPREVPRDEYEDLYYTPSSGMASPDSPPDTSRRGALQTRSRQRGEVRFVQYDESDYALYGGSSSEDDEHPEVPRTRRPVSGAVLSGPGPARAPPPPAGSGGAGRTPTTAPRAPRTQRVATKAPAAPAAETTRGRKSAQPESAALPDAPASTAPTRSKTPAQGLARKLHFSTAPPNPDAPWTPRVAGFNKRVFCAAVGRLAAMHARMAAVQLWDMSRPRTDEDLNELLGITTIRVTVCEGKNLLQRANELVNPDVVQDVDAATATRGRSAASRPTERPRAPARSASRPRRPVE
modifications: AF488 NHS ester label
The term Kd denotes the equilibrium constant for the complex coming apart. The low end stands for tighter binding, the high end for weaker binding. On to B1, for which the Kd in assay [2] was approximately 2000 nM.

B2: Varicella-Zoster virus ORF9 (VZV-ORF9) (natural protein)
chain: MASSDGDRLCRSNAVRRKTTPSYSGQYRTARRSVVVGPPDDSDDSLGYITTVGADSPSPVYADLYFEHKNTTPRVHQPNDSSGSEDDFEDIDEVVAAFREARLRHELVEDAVYENPLSVEKPSRSFTKNAAVKPKLEDSPKRAPPGAGAIASGRPISFSTAPKTATSSWCGPTPSYNKRVFCEAVRRVAAMQAQKAAEAAWNSNPPRNNAELDRLLTGAVIRITVHEGLNLIQAANEADLGEGASVSKRGHNRKTGDLQGGMGNEPMYAQVRKPKSRTDTQTTGRITNRSRARSASRTDTRK
modifications: AF488 NHS ester label
Molecule B2 gave a Kd in assay [2] of approximately 2000 nM.
